Drawing on article PMC5445624, this text covers response (% bound relative to input), ratio to parent and percent of parent (% of RNF4(WT)) for three substances.

The target of test [1] is MBP-RNF4(WT) (UniProt O88846). The test is described as follows: GST pulldown. The note with it: for ratio to parent: parent: est. 1.0, read off a plot.
The target in test [2] is GST-ETV4(1-335)(WT) SUMOylated with wild-type SUMO3, P28322;P55854. Nature of the test: GST pulldown. The note with it: printed grade '++' (legend: ≥50% of RNF4(WT)); parent: +++ (≥80%).

With “GST-ETV4(1-480)(WT) modified with SUMO3(K11R) (from UniProt P28322;P55854) K96R; K222R; K256R; K328R”, the response (% bound relative to input) in test [1] (ETV4 co-expressed in bacteria with SUMO3(K11R), lane 5, parent: 49) is 3. Moreover, the ratio to parent in test [1] (ETV4 co-expressed with SUMO3(K11R)) was 0.05.
In the case of “MBP-RNF4(WT) (from UniProt O88846) SIM1,2mut”, the percent of parent (% of RNF4(WT)) in test [2] was 50.
With “GST-ETV4(1-480)(WT) modified with SUMO3(WT) (from UniProt P28322;P55854) K96R; K222R; K256R; K328R”, the response (% bound relative to input) in test [1] (ETV4 co-expressed in bacteria with SUMO3(WT), lane 1, parent: 60) worked out at 12. For the same substance, the ratio to parent in test [1] (ETV4 co-expressed with SUMO3(WT)) is 0.03.
